{"source": "patent US20070105771A1", "about": "(Y S THERAPEUTICS, published 2007)", "binders": {"B1": {"name": "rhuMAb 412 (antibody, human IgG1, V domains shown)", "VH": "EVQLVQSGGGVKQPGETLRLTCTASGFSLTTYGVHWVRQAPGKGLEWVGVIWGDGRTDYDAAFMSRVTISKDTSKSTAYLQMNSLRAEDTAVYYCMRNRHDWFDYWGQGTTVTVSS", "VL": "EIEMTQSPSSLSVSAGERATISCSASQDIRNSLNWYQQKPGQAPRLLIYYSSNLHTGVPARFSGSGSGTDFTLTISRLEPEDVAIYYCQQSNKLPLTFGSGTKVEIKR", "notes": "X385 VH and X380 VL with human IgG1 and human kappa constant regions; also called X412"}}, "key": {"[1]": {"target": "T1, human CD26-derived 13 mer peptide 67 (human)", "T1 construct": "also called LPSYRITWTGKED", "T1 peptide": "LPSYRITWTGKED", "test": "peptide microarray", "method": "(§1) The overnight incubation was followed by three washings with each of PBS buffer pH 7.5 and water. The microarrays were then scanned using ArrayWorx-Microarray Scanner.\n(§2) The SPOT recognition software package ArrayPro was used for data analysis. The mean of signal intensities from 3 identical subarrays on each microarray image was used for data evaluation."}, "[2]": {"target": "T2, human CD26-derived 13 mer peptide 71 (human)", "T2 peptide": "TGKEDIIYNGITD", "test": "peptide microarray", "method": "as §1, §2"}, "[3]": {"target": "T3, human CD26-derived 13 mer peptide 87 (human)", "T3 peptide": "GTFLAYAQFNDTE", "test": "peptide microarray", "method": "as §1, §2"}, "[4]": {"target": "T4, human CD26-derived 13 mer peptide 88 (human)", "T4 peptide": "FLAYAQFNDTEVP", "test": "peptide microarray", "method": "as §1, §2"}, "[5]": {"target": "T5, human CD26-derived 13 mer peptide 90 (human)", "T5 peptide": "AQFNDTEVPLIEY", "test": "peptide microarray", "method": "as §1, §2"}, "[6]": {"target": "T6, human CD26-derived 13 mer peptide 96 (human)", "T6 peptide": "YSFYSDESLQYPK", "test": "peptide microarray", "method": "as §1, §2"}, "[7]": {"target": "T7, human CD26-derived 13 mer peptide 100 (human)", "T7 peptide": "LQYPKTVRVPYPK", "test": "peptide microarray", "method": "as §1, §2"}, "[8]": {"target": "T8, human CD26-derived 13 mer peptide 102 (human)", "T8 peptide": "KTVRVPYPKAGAV", "test": "peptide microarray", "method": "as §1, §2"}, "[9]": {"target": "T9, human CD26-derived 13 mer peptide 103 (human)", "T9 peptide": "VRVPYPKAGAVNP", "test": "peptide microarray", "method": "as §1, §2"}, "[10]": {"target": "T10, human CD26-derived 13 mer peptide 104 (human)", "T10 peptide": "VPYPKAGAVNPTV", "test": "peptide microarray", "method": "as §1, §2"}, "[11]": {"target": "T11, human CD26-derived 13 mer peptide 110 (human)", "T11 peptide": "VKFFVVNTDSLSS", "test": "peptide microarray", "method": "as §1, §2"}, "[12]": {"target": "T12, human CD26-derived 13 mer peptide 111 (human)", "T12 peptide": "FFVVNTDSLSSVT", "test": "peptide microarray", "method": "as §1, §2"}, "[13]": {"target": "T13, human CD26-derived 13 mer peptide 112 (human)", "T13 peptide": "VVNTDSLSSVTNA", "test": "peptide microarray", "method": "as §1, §2"}, "[14]": {"target": "T14, human CD26-derived 13 mer peptide 116 (human)", "T14 peptide": "SVTNATSIQITAP", "test": "peptide microarray", "method": "as §1, §2"}, "[15]": {"target": "T15, human CD26-derived 13 mer peptide 117 (human)", "T15 peptide": "TNATSIQITAPAS", "test": "peptide microarray", "method": "as §1, §2"}, "[16]": {"target": "T16, human CD26-derived 13 mer peptide 118 (human)", "T16 peptide": "ATSIQITAPASML", "test": "peptide microarray", "method": "as §1, §2"}, "[17]": {"target": "T17, human CD26-derived 13 mer peptide 119 (human)", "T17 peptide": "SIQITAPASMLIG", "test": "peptide microarray", "method": "as §1, §2"}, "[18]": {"target": "T18, human CD26-derived 13 mer peptide 122 (human)", "T18 peptide": "PASMLIGDHYLCD", "test": "peptide microarray", "method": "as §1, §2"}, "[19]": {"target": "T19, human CD26-derived 13 mer peptide 9 (human)", "T19 peptide": "SDHEYLYKQENNI", "test": "peptide microarray", "method": "as §1, §2"}, "[20]": {"target": "T20, human CD26-derived 13 mer peptide 10 (human)", "T20 peptide": "HEYLYKQENNILV", "test": "peptide microarray", "method": "as §1, §2"}, "[21]": {"target": "T21, human CD26-derived 13 mer peptide 15 (human)", "T21 peptide": "ILVFNAEYGNSSV", "test": "peptide microarray", "method": "as §1, §2"}, "[22]": {"target": "T22, human CD26-derived 13 mer peptide 18 (human)", "T22 peptide": "EYGNSSVFLENST", "test": "peptide microarray", "method": "as §1, §2"}, "[23]": {"target": "T23, human CD26-derived 13 mer peptide 21 (human)", "T23 peptide": "VFLENSTFDEFGH", "test": "peptide microarray", "method": "as §1, §2"}, "[24]": {"target": "T24, human CD26-derived 13 mer peptide 22 (human)", "T24 peptide": "LENSTFDEFGHSI", "test": "peptide microarray", "method": "as §1, §2"}, "[25]": {"target": "T25, human CD26-derived 13 mer peptide 23 (human)", "T25 peptide": "NSTFDEFGHSIND", "test": "peptide microarray", "method": "as §1, §2"}, "[26]": {"target": "T26, human CD26-derived 13 mer peptide 24 (human)", "T26 peptide": "TFDEFGHSINDYS", "test": "peptide microarray", "method": "as §1, §2"}, "[27]": {"target": "T27, human CD26-derived 13 mer peptide 25 (human)", "T27 peptide": "DEFGHSINDYSIS", "test": "peptide microarray", "method": "as §1, §2"}, "[28]": {"target": "T28, human CD26-derived 13 mer peptide 26 (human)", "T28 peptide": "FGHSINDYSISPD", "test": "peptide microarray", "method": "as §1, §2"}, "[29]": {"target": "T29, human CD26-derived 13 mer peptide 28 (human)", "T29 peptide": "INDYSISPDGQFI", "test": "peptide microarray", "method": "as §1, §2"}, "[30]": {"target": "T30, human CD26-derived 13 mer peptide 43 (human)", "T30 peptide": "YDIYDLNKRQLIT", "test": "peptide microarray", "method": "as §1, §2"}, "[31]": {"target": "T31, human CD26-derived 13 mer peptide 44 (human)", "T31 peptide": "IYDLNKRQLITEE", "test": "peptide microarray", "method": "as §1, §2"}, "[32]": {"target": "T32, human CD26-derived 13 mer peptide 45 (human)", "T32 peptide": "DLNKRQLITEERI", "test": "peptide microarray", "method": "as §1, §2"}, "[33]": {"target": "T33, human CD26-derived 13 mer peptide 46 (human)", "T33 construct": "also called NKRQL1TEERIPN", "T33 peptide": "NKRQLITEERIPN", "test": "peptide microarray", "method": "as §1, §2"}, "[34]": {"target": "T34, human CD26-derived 13 mer peptide 47 (human)", "T34 peptide": "RQLITEERIPNNT", "test": "peptide microarray", "method": "as §1, §2"}, "[35]": {"target": "T35, human CD26-derived 13 mer peptide 60 (human)", "T35 peptide": "YVWNNDIYVKIEP", "test": "peptide microarray", "method": "as §1, §2"}, "[36]": {"target": "T36, human CD26-derived 13 mer peptide 61 (human)", "T36 peptide": "WNNDIYVKIEPNL", "test": "peptide microarray", "method": "as §1, §2"}, "[37]": {"target": "T37, human CD26-derived 13 mer peptide 62 (human)", "T37 peptide": "NDIYVKIEPNLPS", "test": "peptide microarray", "method": "as §1, §2"}, "[38]": {"target": "human CD26 on the cell surface (human, UniProt P27487 1-766)", "sequence (P27487 whole entry)": "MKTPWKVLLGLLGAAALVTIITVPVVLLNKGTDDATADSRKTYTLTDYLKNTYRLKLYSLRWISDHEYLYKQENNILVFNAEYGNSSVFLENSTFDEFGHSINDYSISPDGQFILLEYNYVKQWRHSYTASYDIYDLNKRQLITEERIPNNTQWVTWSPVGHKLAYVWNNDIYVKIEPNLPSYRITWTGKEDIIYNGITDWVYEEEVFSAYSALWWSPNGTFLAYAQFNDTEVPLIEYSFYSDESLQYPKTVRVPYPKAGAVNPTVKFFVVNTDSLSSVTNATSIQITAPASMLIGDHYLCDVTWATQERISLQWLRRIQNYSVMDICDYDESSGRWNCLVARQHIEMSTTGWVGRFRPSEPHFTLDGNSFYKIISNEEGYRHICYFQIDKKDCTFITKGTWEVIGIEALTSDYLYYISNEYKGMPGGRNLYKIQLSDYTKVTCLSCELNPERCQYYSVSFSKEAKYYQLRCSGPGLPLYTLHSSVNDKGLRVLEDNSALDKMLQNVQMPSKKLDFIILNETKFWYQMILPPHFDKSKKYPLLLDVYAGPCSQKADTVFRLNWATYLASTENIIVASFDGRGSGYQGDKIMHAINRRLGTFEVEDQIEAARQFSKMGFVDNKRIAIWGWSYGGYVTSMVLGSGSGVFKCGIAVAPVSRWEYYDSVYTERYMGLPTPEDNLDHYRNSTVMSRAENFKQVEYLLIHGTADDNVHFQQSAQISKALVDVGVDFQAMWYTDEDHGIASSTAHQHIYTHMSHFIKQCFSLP", "test": "cell-based or functional assay"}}}
{"binder": "B1", "values": [{"measurement": "Mean Signal Value", "setting": "[1]", "value": 0}, {"measurement": "Mean Signal Value", "setting": "[2]", "value": 0}, {"measurement": "Mean Signal Value", "setting": "[3]", "value": 0}, {"measurement": "Mean Signal Value", "setting": "[4]", "value": 0}, {"measurement": "Mean Signal Value", "setting": "[5]", "value": 0}, {"measurement": "Mean Signal Value", "setting": "[6]", "value": 0}, {"measurement": "Mean Signal Value", "setting": "[7]", "value": 0}, {"measurement": "Mean Signal Value", "setting": "[8]", "value": 0}, {"measurement": "Mean Signal Value", "setting": "[9]", "value": 0}, {"measurement": "Mean Signal Value", "setting": "[10]", "value": 0}, {"measurement": "Mean Signal Value", "setting": "[11]", "value": 0}, {"measurement": "Mean Signal Value", "setting": "[12]", "value": 0}, {"measurement": "Mean Signal Value", "setting": "[13]", "value": 0}, {"measurement": "Mean Signal Value", "setting": "[14]", "value": 0}, {"measurement": "Mean Signal Value", "setting": "[15]", "value": 0}, {"measurement": "Mean Signal Value", "setting": "[16]", "value": 0}, {"measurement": "Mean Signal Value", "setting": "[17]", "value": 0}, {"measurement": "Mean Signal Value", "setting": "[18]", "value": 0}, {"measurement": "Mean Signal Value", "setting": "[19]", "value": 0}, {"measurement": "Mean Signal Value", "setting": "[20]", "value": 0}, {"measurement": "Mean Signal Value", "setting": "[21]", "value": 0}, {"measurement": "Mean Signal Value", "setting": "[22]", "value": 0}, {"measurement": "Mean Signal Value", "setting": "[23]", "value": 0}, {"measurement": "Mean Signal Value", "setting": "[24]", "value": 0}, {"measurement": "Mean Signal Value", "setting": "[25]", "value": 0}, {"measurement": "Mean Signal Value", "setting": "[26]", "value": 0}, {"measurement": "Mean Signal Value", "setting": "[27]", "value": 0}, {"measurement": "Mean Signal Value", "setting": "[28]", "value": 0}, {"measurement": "Mean Signal Value", "setting": "[29]", "value": 0}, {"measurement": "Mean Signal Value", "setting": "[30]", "value": 0}, {"measurement": "Mean Signal Value", "setting": "[31]", "value": 0}, {"measurement": "Mean Signal Value", "setting": "[32]", "value": 0}, {"measurement": "Mean Signal Value", "setting": "[33]", "value": 0}, {"measurement": "Mean Signal Value", "setting": "[34]", "value": 0}, {"measurement": "Mean Signal Value", "setting": "[35]", "value": 0}, {"measurement": "Mean Signal Value", "setting": "[36]", "value": 0}, {"measurement": "Mean Signal Value", "setting": "[37]", "value": 0}, {"measurement": "percent inhibition, MTT assay, Jurkat CD26+ cells, 0.05 ug/ml", "setting": "[38]", "value": 0.3, "unit": "%"}, {"measurement": "percent inhibition, MTT assay, Jurkat CD26+ cells, 0.25 ug/ml", "setting": "[38]", "value": 5.4, "unit": "%"}, {"measurement": "percent inhibition, MTT assay, Jurkat CD26+ cells, 5 ug/ml", "setting": "[38]", "value": 23.6, "unit": "%"}]}
